# Measurements taken from the nanobody polyreactivity screen of Harvey et al. (2022).
# Experiment: yeast display, Sf9 membrane polyspecificity reagent, FACS + sequencing; frameworks hold sequencing errors
# In short: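 Synthetic nanobody libraries on Saccharomyces cerevisiae BJ5465 were galactose-induced for 36–48 hours, stained 1 hour at 4 °C with 10% biotinylated, detergent-solubilized Sf9 membrane reagent and enriched on streptavidin microbeads. FACS then separated cells into low and high (top ~1%) gates by anti-HA (expression) and streptavidin (reagent binding) fluorescence. Genes were colony-PCR amplified, MiSeq 2 × 250 sequenced and CDR-length filtered. A clone's polyreactivity label is that of its gate of origin.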
row,Sequence,polyreactivity (PSR sort gate)
1,QVQLVESGGGLVQAGGSLRLSSAASGITFGAYAMGWYRPAPGKERELVAAIRRSDGSTYYADSVKGRFTISRDNAKNTVDLQINSLKPEETAVYYCAADEGLYQGYEYDYWGHGTQVTVSS,high polyreactivity
2,QVQLVESGGGLVQAGGSLRLSSAASGITFGRNTMGWYRQAPGKEREFVAAIDSGGNTYADSVQGRFTISRDNAKNTVYLQMNSLKPEDTAVYYCAVAGGEFSSYGYLGQGTQVTVSS,low polyreactivity
3,QVQLVESGGGLVQAGGSLRLSSAASGITFRNYAMGWSRQAPGKERELVAAITRGGRTNYADSVKGRFTISRDNAKNTVYLQMNSLKPEDTAVYYCATGRDSNFGNSYYYWGQGTQVTVSS,high polyreactivity
4,QVQLVESGGGLVQAGGSLRLSSAASGITFTRNAMGWYRQAPGKERELVATIDSGDSTYYADSVKGRFTISRDNAKNTVYLQMNSQKPEDTAVYYCAAEWYGYEPSYWYYWPYEYWGQGTQVTVSS,high polyreactivity
5,QVQLVESGGGLVQAGGSLRLSSAASGLIFRHNAMGWYRQAPGKERELVAAISSTGGRTYYADSVKGRFTISRDNAKNTVYLQMNSLKPEDTAVYYCAARHTKALWSPQNGYYWGQGTQVTVSS,high polyreactivity
6,QVQLVESGGGLVQAGGSLRLSSAASGLIFWAYAMGWYRQAPGKERELVAAINSGGRTYYADSVKGRFTISRDNAKNTVYLQMNSLKPEDTAVYYCAAAGVYSSDYWGQGTQVTVSS,low polyreactivity
7,QVQLVESGGGLVQAGGSLRLSSAASGLTFQEYAMGWYRQAPGKESELVAAISWSGGSTYYADSVKGRFTISRDNAKNTVYLQMNSLKPEDTAVYYCAAEAYEEYITGWYAYDYWGQGTQVTVSS,high polyreactivity
8,QVQLVESGGGLVQAGGSLRLSSAASGLTFTYYVMGWYRQAPGKERELVAAITVSGGSTYYADSVKGRFTISRDNAKNTVYLQMNSLKPEDTAVYYCAADAYSGYSDYYWGQGTQVTVSS,low polyreactivity
9,QVQLVESGGGLVQAGGSLRLSSAASGLTIAPYARGWYRPAPGKVWELVAAITQRGSSTYYADSVKGRFTISRDNAKNTVYLQMNSLKRVDTAVYYCAARYRARYYWGQGTQVTVSS,high polyreactivity
10,QVQLVESGGGLVQAGGSLRLSSAASGNINSWNTMGWYRQAPGKERELVAAITFRGTRTFYADSVKGRFTISRDNAKNTVYLQMNSLKPDDTAVFYCAARYYYSYSLGYDYWGQGTQVTVSS,high polyreactivity
11,QVQLVESGGGLVQAGGSLRLSSAASGNTIYGYAMGWYRQAPGNERELVASITLSGDSTYYADSVKGRFTISRDNAKNTVYLQMNSLKPEDTAVYYCAGVYTYPLGYYHYTYDYWGQGTQVTVSS,low polyreactivity
12,QVQLVESGGGLVQAGGSLRLSSAASGRIFAHNAMGWSRQAPGKERELVAAITWSGGSTYYADSVKGRFTISRDNAKNTVYLQMNSLKPEDTAVYYCNTDSHGHLYIYWGQGNQVTVSS,low polyreactivity
13,QVQLVESGGGLVQAGGSLRLSSAASGRIFPGYSMGWYRQAPGKERELVASISRTGRTNYADSVKGRFTNSRDNAKNTVYLPMHSLKPEDTAVYYCAAGIVVTGYDYWGQGTQVSVSS,low polyreactivity
14,QVQLVESGGGLVQAGGSLRLSSAASGRIFRRNTMGWYRQAPGKERELVAAITSSGGSTYADSVKGRFTISRDNAKNTVYLQMNSLKPEDTAVYYCATYVAYHRGYRTYDHWGQGTQVTVSS,low polyreactivity
15,QVQLVESGGGLVQAGGSLRLSSAASGRIFSDYDMGWYRQAHGKERELVAAITSGGITNYADSVKGRFTISRDNAKNTVYLQMNSLKPEDTAVYYCATGRRRYYFREYYYWGQGTQVTVSS,high polyreactivity
16,QVQLVESGGGLVQAGGSLRLSSAASGRIFWTNAMGWYRQAPGKERELVAGITWRGGSTYYADSVKGRFTISRDNAKNTVSLQMNSLKPEDTAVYYCASRQGWYSGFDYWGQGTQVTVSS,high polyreactivity
17,QVQLVESGGGLVQAGGSLRLSSAASGRIFYNYAMGWYRQAPGKERELVAAISVSGGSTYYADSVKGRFTISRDNAKNTVYLQMNSLKPEDTAVYYCAAGRGYTYNYWGQGSQVTVSS,high polyreactivity
18,QVQLVESGGGLVQAGGSLRLSSAASGRMFHFNAMGWYRQARGKERELVARITFSGGSTYYADSVKGRFTISRDNAKNTVYLQMNSLKPEDTAVYYCAVDAPPIFYEGGDYWGQGTQVTVSS,low polyreactivity
19,QVQLVESGGGLVQAGGSLRLSSAASGRNFGPYTMRWSRQAPGKERELVATISYSGSTTYYADSVKGRFTISRDNAKNTVYLQMNSLKPEDTAVYYCNAQYYVFITFDYWGQGTQVTVSS,high polyreactivity
20,QVQLVESGGGLVQAGGSLRLSSAASGRTFHSYARGWYRQSPGKERELVAGMSWGGTRTTYADSVKGRFTLSRDNAKNTVYLQMNSLKPEDTADYYCNAVYYALGRSPPDYGYWGQGTQVTVSS,low polyreactivity
21,QVQLVESGGGLVQAGGSLRLSSAASGRTFNVNAMGLYRQAPGKERELVAAIDFSDGRTYYADSVKGRFTISRDNAKNTVYLQMNSLKPADTAVYYCARSFRVGKTWYDYWGQGTQVTVSS,high polyreactivity

row,Sequence,polyreactivity (PSR sort gate)
1,QVQLVESGGGLVQAGGSLRLSSAASGRTFQTNAMGWYRQAPGKERELVAAISSTGGSTYYADSVKGRFTISRDNAKNTVYLQMNSLKPEDTAVYYCNAGRTYRYDFWGQGTQVTVSS,high polyreactivity
2,QVQLVESGGGLVQAGGSLRLSSAASGRTFSYNTMGWYSQAPGQERELVARITWGGGSTNYAVSVKGRFTISRDNAKNTVYLQMNSLKPEDTAVYYCAAGPSVPYGPQKVDYWGQGTLVTVSS,low polyreactivity
3,QVQLVESGGGLVQAGGSLRLSSAASGRTFVNYTMGWYRQAPGIERELVAAITSSGGSTYYADSVKGRFTISRDNAKNTVYLQMNSLKPEDTAVYYCAAAKFDLSFWLYYWGQGTQVTVSS,low polyreactivity
4,QVQLVESGGGLVQAGGSLRLSSAASGRTFYLNAMGWYRQAPGKERELVAAIRISGGSTYYADSVKGRFTISRDNAKNTVYLQMKSLKPEDTAVYYCIAGPYHALSPTVSEYGYWGQGSQVTVSS,low polyreactivity
5,QVQLVESGGGLVQAGGSLRLSSAASGRTSYVYAMGWYRQEPGKERELVAVITRRGGSTYYADSVKGRFTISRDNAKNTVYLQMNSLKPEDTAVYYCNAAYTTWRRGPMNYWGQGTQVTVSS,high polyreactivity
6,QVQLVESGGGLVQAGGSLRLSSAASGSIFAYNDMGWYRQAPGKERELVAAITWSGDSTYYADSVKGRFTISRDNAKNTVYLQMNSLKPEDTAVYYCATDPLFKTSTRWKYDYWGQGTQVTVSS,low polyreactivity
7,QVQLVESGGGLVQAGGSLRLSSAASGSIFKYNAMGWYRQAPGEERELVAAIRWSGGSTYYADSVKGRFTISRDNAKNTVYLQMNSLKPEDTAVYYCAAEYFNQNTRQGYDYWGQGSQVTVSS,low polyreactivity
8,QVQLVESGGGLVQAGGSLRLSSAASGSIFKYYAMGWYRQAPGKERELVATISSVGSTNYADSVKGRFTISRDNAKNTVYLKMNSLKPEATAVYYCNARIGSRSYAWISTRYDYWGQGTQVTVSS,high polyreactivity
9,QVQLVESGGGLVQAGGSLRLSSAASGSIFLYNAMGWYRQAPGKERELVAAISGSGGRTNYADSVKGRFTISRDHAKNTVYLQMNSLKPEVTAVYYCAAGYHVFRLGYARIPLYDYWGQGTQVTVSS,low polyreactivity
10,QVQLVESGGGLVQAGGSLRLSSAASGSIFWHYAMGRYRQAHGKERQLVAGISTRGGITYFADSVKGRFTISRDNAKNTVYLQMNSLKPEDTAVYYCNGVLFFQWFWTYDDYWGQGTQVTVSS,low polyreactivity
11,QVQLVESGGGLVQAGGSLRLSSAASGSIIKYYAMGWYRQAPGKERELVAAINKSGGTTYYADSVKGRFTISRDNAQNPVYLQMNSLKPEDTAVYYCATDNTVVYQPGNMDFWGQGTQVTVSS,low polyreactivity
12,QVQLVESGGGLVQAGGSLRLSSAASGSILPLYAMGWYRQAPGKERELVADISWSGGDTYYADSVKGRFTISRDKAKNTVYLQMNSLKPEDTAVYYCNSRLDYSTYESSPVTRKRVYWGQGTQVTVSS,low polyreactivity
13,QVQLVESGGGLVQAGGSLRLSSAASGSILWQYAMGWYRQAPGTERELVAAMTYSGGSTHYADSVKGRFTISRDNAKNTVYLQMNSLKPEDTAVYYCAAGYWYRYAALRYDHWGQGTQVTVSS,low polyreactivity
14,QVQLVESGGGLVQAGGSLRLSSAASGSTFGYYAMGWYRQAPGKERELVAVIRSRTGDTNYADSVKGRFTISRDNAKNTVYLQMNSQKPEDTAVYYCNAALWYGSTIYSYRYGYWGHGTQVTVSS,high polyreactivity
15,QVQLVESGGGLVQAGGSLRLSSAASGSTFRYNALGWYRQAPGKERELVAAISSSGGSTRYADSVKGRFTISRDNEKYTDYLQMNSLKPEDTAVYYCDVRFYDWRYYYWGQGTQVTVSS,high polyreactivity
16,QVQLVESGGGLVQAGGSLRLSSAASGSTFVWYAMGWYRQAPGKERELVASISGSGGRTYYADSVKGRFTISRDNAKNTVYLQMNSLKPEDTAVYYCAAYYRKTGYDYWGQGTQVTVSS,high polyreactivity
17,QVQLVESGGGLVQAGGSLRLSSAASGSTFYWYTMGWYRQAPGKERELVARISKRGGSTYYADSVKGRFTISRDNAKNTVYLQMNSLKPEDTAVYYCNATSRTVGFGYWGQGTQVTVSS,high polyreactivity
18,QVQLVESGGGLVQAGGSLRLSSAASGSTFYYYAMGWYRQAPGKERELVATISRSTARTFYADSVKGRFTISRDNEKNTVYLQMNSLKPEDTAVYYCAATSYVSVYPSYYRFGTYGYWGQGTQVTVSS,high polyreactivity
19,QVQLVESGGGLVQAGGSLRLSSAASGSTSRYYDMGWYRQSPGKVRELVAAITWSGGTTYYADSVKGRFTISRDNAKNTVYLQMNSLKPDDPAVYYCAADASYTYYEFVYWGQGTQVTVSS,low polyreactivity
20,QVQLVESGGGLVQAGGSLRLSSAASGYIFTPYAMGWYRQAPGKERELVAAISSSTVRTFYADSVKGRFTISRDNAKNTVYLQMNSLKPEDTAVYYCAARGYWGQGTQVTVSS,high polyreactivity
